# Results published in the supplement of paper PMC10567573.
# B1: RTP4 (parent)
# chain: TYWEHWTSQGQVRMRLFGQRCQKC
# Variants of: B1
# Test: protein stability index of a GFP-peptide fusion (GPS, HEK-293T) (PSI 1-6); higher = more stable
# Details: c terminus: a fixed tail appended
# 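Also: lentivirally expressed fusions sorted by FACS into six bins by GFP to DsRed ratio, PSI derived from sequencing read proportions per bin multiplied by bin number.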
row,Variant,protein stability index
1,TYWEHWTSQGQVIMRLFGQRCQKC [R13I],2.76
2,TYWEHWTSQGQVWMRLFGQRCQKC [R13W],2.11
3,TYWEHWTSQGQVPMRLFGQRCQKC [R13P],1.92
4,TYWEHWTSQGQVLMRLFGQRCQKC [R13L],1.69
5,TYWEHWTSQGQVGMRLFGQRCQKC [R13G],1.65
6,TYWEHWTSQGQVCMRLFGQRCQKC [R13C],2.78
7,TYWEHWTSQGQVSMRLFGQRCQKC [R13S],1.59
8,TYWEHWTSQGQVVMRLFGQRCQKC [R13V],1.65
9,TYWEHWTSQGQVNMRLFGQRCQKC [R13N],1.54
10,TYWEHWTSQGQVDMRLFGQRCQKC [R13D],2.04
11,TYWEHWTSQGQVHMRLFGQRCQKC [R13H],2.4
12,TYWEHWTSQGQVEMRLFGQRCQKC [R13E],1.74
13,TWWEHWTSQGQVRMRLFGQRCQKC [Y2W],1.53
14,TTWEHWTSQGQVRMRLFGQRCQKC [Y2T],2.46
15,TPWEHWTSQGQVRMRLFGQRCQKC [Y2P],2.1
16,TYWEHDTSQGQVRMRLFGQRCQKC [W6D],3.38
17,TYWEHGTSQGQVRMRLFGQRCQKC [W6G],1.75
18,TYWEHPTSQGQVRMRLFGQRCQKC [W6P],2.07
19,TYWEHVTSQGQVRMRLFGQRCQKC [W6V],2.32
20,TYWEHSTSQGQVRMRLFGQRCQKC [W6S],2.13
21,TYWEHRTSQGQVRMRLFGQRCQKC [W6R],2.7
22,TYWEHFTSQGQVRMRLFGQRCQKC [W6F],1.39
23,TYWEHLTSQGQVRMRLFGQRCQKC [W6L],1.61
24,TYWEHETSQGQVRMRLFGQRCQKC [W6E],1.95

row,Variant,protein stability index
1,TYWEHKTSQGQVRMRLFGQRCQKC [W6K],1.6
2,TYWEHMTSQGQVRMRLFGQRCQKC [W6M],1.52
3,TYWEHATSQGQVRMRLFGQRCQKC [W6A],2.4
4,TYWEHYTSQGQVRMRLFGQRCQKC [W6Y],2.05
5,TYWEHCTSQGQVRMRLFGQRCQKC [W6C],2.25
6,TYWEHNTSQGQVRMRLFGQRCQKC [W6N],2.11
7,TYWEHTTSQGQVRMRLFGQRCQKC [W6T],1.94
8,TYWEHQTSQGQVRMRLFGQRCQKC [W6Q],2.65
9,TYWEHWTSQGKVRMRLFGQRCQKC [Q11K],2.48
10,TYWEHWTSQGRVRMRLFGQRCQKC [Q11R],2.6
11,TYWEHWTSQGCVRMRLFGQRCQKC [Q11C],3.14
12,TYWEHWTSQGIVRMRLFGQRCQKC [Q11I],2.31
13,TYWEHWTSQGSVRMRLFGQRCQKC [Q11S],2.59
14,TYWEHWTSQGMVRMRLFGQRCQKC [Q11M],2.4
15,TYWEHWTSQGAVRMRLFGQRCQKC [Q11A],1.84
16,TYWEHWTSQGNVRMRLFGQRCQKC [Q11N],2.01
17,TYWEHWTSQGDVRMRLFGQRCQKC [Q11D],2.41
18,TYWEHWTSQGPVRMRLFGQRCQKC [Q11P],2.14
19,TYWEHWTSQGGVRMRLFGQRCQKC [Q11G],2.64
20,TYWEHWTSQGYVRMRLFGQRCQKC [Q11Y],1.58
21,TYWEHWTSQGLVRMRLFGQRCQKC [Q11L],2.02
22,TYWEHWTSQGHVRMRLFGQRCQKC [Q11H],1.65
23,TYWEHWTIQGQVRMRLFGQRCQKC [S8I],2.05
24,TYWEHWTCQGQVRMRLFGQRCQKC [S8C],1.79

row,Variant,protein stability index
1,TYWEHWTAQGQVRMRLFGQRCQKC [S8A],3.23
2,TYWEHWTPQGQVRMRLFGQRCQKC [S8P],1.66
3,TYWEHWTMQGQVRMRLFGQRCQKC [S8M],3.02
4,TYWEHWTLQGQVRMRLFGQRCQKC [S8L],1.23
5,TYWEHWTEQGQVRMRLFGQRCQKC [S8E],1.76
6,TYWEHWTTQGQVRMRLFGQRCQKC [S8T],3.23
7,TYWEHWTDQGQVRMRLFGQRCQKC [S8D],1.87
8,TYWEHWTVQGQVRMRLFGQRCQKC [S8V],1.67
9,TYWEHWTHQGQVRMRLFGQRCQKC [S8H],2.56
10,TYWEHWTGQGQVRMRLFGQRCQKC [S8G],2.05
11,TYWEHWTQQGQVRMRLFGQRCQKC [S8Q],1.77
12,TYWEHWTKQGQVRMRLFGQRCQKC [S8K],2.5
13,TYWEHWTNQGQVRMRLFGQRCQKC [S8N],1.32
14,TYWEHWTYQGQVRMRLFGQRCQKC [S8Y],1.82
15,TYWEHWTRQGQVRMRLFGQRCQKC [S8R],1.89
16,TYWEHWTSQDQVRMRLFGQRCQKC [G10D],2.21
17,TYWEHWTSQLQVRMRLFGQRCQKC [G10L],1.89
18,TYWEHWTSQCQVRMRLFGQRCQKC [G10C],1.87
19,TYWEHWTSQQQVRMRLFGQRCQKC [G10Q],1.8
20,TYWEHWTSQSQVRMRLFGQRCQKC [G10S],2.39
21,TYWEHWTSQHQVRMRLFGQRCQKC [G10H],1.76
22,TYWEHWTSQPQVRMRLFGQRCQKC [G10P],1.91
23,TYWEHWTSQIQVRMRLFGQRCQKC [G10I],2.47
24,TYWEHWTSQAQVRMRLFGQRCQKC [G10A],1.33

row,Variant,protein stability index
1,TYWEHWTSQFQVRMRLFGQRCQKC [G10F],2.53
2,TYWEHWTSQMQVRMRLFGQRCQKC [G10M],1.68
3,TYWEHWTSQRQVRMRLFGQRCQKC [G10R],1.69
4,TYWEHWTSQYQVRMRLFGQRCQKC [G10Y],1.92
5,TYWEHWTSQWQVRMRLFGQRCQKC [G10W],2.07
6,TYWEHWTSQTQVRMRLFGQRCQKC [G10T],2.27
7,TYWEHWTSGGQVRMRLFGQRCQKC [Q9G],1.27
8,TYWEHWTSDGQVRMRLFGQRCQKC [Q9D],1.4
9,TYWEHWTSVGQVRMRLFGQRCQKC [Q9V],2.5
10,TYWEHWTSFGQVRMRLFGQRCQKC [Q9F],1.77
11,TYWEHWTSNGQVRMRLFGQRCQKC [Q9N],2.08
12,TYWEHWTSKGQVRMRLFGQRCQKC [Q9K],2.17
13,TYWEHWTSWGQVRMRLFGQRCQKC [Q9W],1.69
14,TYWEHWTSEGQVRMRLFGQRCQKC [Q9E],2.02
15,TYWEHWTSIGQVRMRLFGQRCQKC [Q9I],2.08
16,TYWEHWTSHGQVRMRLFGQRCQKC [Q9H],1.18
17,TYWEHWTSCGQVRMRLFGQRCQKC [Q9C],1.48
18,TYWEHWTSAGQVRMRLFGQRCQKC [Q9A],1.95
19,TYWEHWTSTGQVRMRLFGQRCQKC [Q9T],1.8
20,TYWEHWTSPGQVRMRLFGQRCQKC [Q9P],1.6
21,TYWEHWTSRGQVRMRLFGQRCQKC [Q9R],2.24
22,TYWEHWWSQGQVRMRLFGQRCQKC [T7W],2.06
